Reference: the supplement of paper PMC10567573
± gives the standard deviation.

Test: protein stability index of a GFP-peptide fusion (GPS, HEK-293T) (PSI 1-6); higher = more stable
Conditions: c terminus: a fixed tail appended
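Also: 24-mer peptide tiles fused after GFP, lentivirally expressed, FACS-sorted into six equal bins by GFP/DsRed ratio, decoded by Illumina sequencing, PSI is the read-weighted mean bin number.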

Sequence	protein stability index (treatment: DMSO)	protein stability index (treatment: MLN4924 1 uM, 8 h)
YEKKQTLGQNDTGFSCDGTANTFR [BTBD1]	4.23 ± 0.3	4.15 ± 0.14
YFHINQTLREAHFHSLQHRGRPLT [FAM104A]	2.96 ± 0.15	3.21 ± 0.31
YFRDLPEPLMTNKLSETFLQIYQY [DLC1]	2.37 ± 0.32	2.26 ± 0.24
YFYLGGARGAGPPEPLRICPLHIS [TRIM35]	2.44 ± 0.28	2.04 ± 0.32
YGAVELSGAGRRKNATRETTSTLK [IRX6]	4.56 ± 0.38	4.52 ± 0.29
YGPRWQEVIPYTPAMQRYVKRLHE [HMOX1]	3.09 ± 0.4	3.4 ± 0.24
YGSDQQHHLGSGSGAGGTGGPAGQ [MYOZ1]	4.93 ± 0.23	4.77 ± 0.28
YKKIYFCHSCQLYLPSTEFSVSST [IQUB]	2.39 ± 0.23	2.08 ± 0.22
YKSFSKEQQTMDNLEKQLICPICL [TRIM55]	2.72 ± 0.38	2.77 ± 0.8
YKVNTPMLQSFINYCLLFLIYTVM [SLC35F2]	2.35 ± 0.8	2.44 ± 0.38
YLIRVDGKGSIKELFPTGKQLEPL [VPS39]	2.49 ± 0.23	2.21 ± 0.23
YLLHGLECVVAMHQAQLISKIPHI [EIF5]	3.37 ± 0.11	3 ± 0.25
YLPTRGGTTMASGGRFRCPSCRHE [TRIM55]	2.69 ± 0.57	3.42 ± 0.43
YMVQDQHECILPFVQVKGNFARLQ [M1AP]	2.56 ± 0.37	2.55 ± 0.42
YPSLYYPEMYILKGGYKEFFPQHP [CDC25B]	1.78 ± 0.2	2.12 ± 0.43
YQCPDQMARNPAAIDMFIIGATFT [FBXO3]	3.02 ± 0.48	2.51 ± 0.77
YRLTEHERAHKGEKPYGCSECGKA [ZNF649]	4.55 ± 0.38	4.85 ± 0.36
YSDNPCSCSQSHCCSRYLCMGAMS [SPRY1]	2.62 ± 0.22	2.71 ± 0.35
YVALQTKGALQKKPLYVAFSFMYI [KCNK9]	3.44 ± 0.89	2.85 ± 0.8
YVHWPYCEKRCSYCNFNKYIPRRL [RSAD1]	2.62 ± 0.51	2.45 ± 0.34
YYYMGFYIHSCPKMKYKGQYRPSD [ATE1]	2.25 ± 0.82	2.45 ± 0.2
